# Laboratory results published in US20240228562A1, “NOVEL LIPOCALIN MUTEINS SPECIFIC FOR CONNECTIVE TISSUE GROWTH FACTOR (CTGF)” (PIERIS PHARMACEUTICALS GMBH, priority 2021, published 2024).
# T1: Murine CTGF (Mus musculus, UniProt P29268)
# T1 construct: purchased Abbexa
# T1 sequence (P29268 26-348): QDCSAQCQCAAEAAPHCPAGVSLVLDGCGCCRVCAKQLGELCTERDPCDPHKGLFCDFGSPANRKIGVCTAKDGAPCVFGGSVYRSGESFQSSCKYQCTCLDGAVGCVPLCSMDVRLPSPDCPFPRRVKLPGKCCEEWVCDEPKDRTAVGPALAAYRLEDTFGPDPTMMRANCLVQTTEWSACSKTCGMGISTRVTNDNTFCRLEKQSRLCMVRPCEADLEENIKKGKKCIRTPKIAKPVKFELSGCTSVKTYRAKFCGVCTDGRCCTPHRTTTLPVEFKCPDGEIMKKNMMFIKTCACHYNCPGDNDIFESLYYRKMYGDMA
# Key:
# [1] = target: T2, human CTGF (Homo sapiens, UniProt P29279, H83D); test: SPR binding kinetics and affinity, human CTGF; design: key to human CTGF kon / human CTGF koff / human CTGF KD: B binding without determination of kinetics constants; conditions: 25° C., 1:1 binding model
# T2 construct: purchased Creative Biomart
# Procedure: (§1) Surface plasmon resonance (SPR) was used to measure binding kinetics and affinity of the representative lipocalin muteins disclosed herein.
# (§2) The binding of exemplary lipocalin muteins to human (Creative Biomart), cynomolgus, rat (R&D Systems) and mouse CTGF (Abbexa) was determined by SPR using a Biacore instrument (Cytiva, formerly GE Healthcare). Some targets were fused to a human IgG1 Fc tag, and captured via the anti-human IgG antibody kit, others were directly immobilized.
# (§3) For some measurements, human CTGF with a human IgG1 Fc Tag or rat or murine CTGF without a tag were directly immobilized to a CM5 Chip. The carboxyl groups on the chip were activated using 1-ethyl-3-(3-dimethylaminopropyl)-carbodiimide (EDC) and N-hydroxysuccinimide (NHS). Subsequently, the targets at a concentration of 3-5 μg/mL in 10 mM sodium acetate (pH) 4.5 were applied at a flow rate of 10 μL/min until an immobilization level of 300-1100 resonance units was achieved. Residual non-reacted NHS-esters were blocked by passing a solution of 1 M ethanolamine across the surface. The reference channel was activated/deactivated. For the capture setting, targets with an IgG Fc Tag at 0.25-2.5 μg/mL in HBS-EP+ buffer were captured by the anti-human IgG-Fc antibody at the chip surface for 180 s at a flow rate of 10 μL/min.
# (§4) The binding assay was carried out with a contact time of 180 s, a dissociation time of 900-3600 s and a flow rate of 30 μL/min. All measurements were performed at 25° C. […] For the directly immobilized targets, the same regeneration conditions were used. Prior to the protein measurements, three startup cycles were performed for conditioning purposes. Data were evaluated with Biacore Evaluation software. Double referencing was used and the 1:1 binding model was used to fit the raw data.
# [2] = target: T1, Murine CTGF; test: SPR binding kinetics and affinity, murine CTGF; design: key to Murine CTGF kon / Murine CTGF koff / Murine CTGF KD: B binding without determination of kinetics constants; conditions: 25° C., 1:1 binding model
# Procedure: as §1, §2, §3, §4
# The values determined for kon, koff and the resulting equilibrium dissociation constant (KD) for exemplary lipocalin muteins are summarized in Table 4.
# [3] = Thermal stability assessment by nanoDSC; type: physicochemical; conditions: 1 mg/mL in PBS, scan 25-100° C. at 1° C./min; for TM: major transition
# Procedure: To determine the melting temperatures (Tms) of the lipocalin muteins, which is a general indicator for folding stability, the CTGF specific muteins, at a protein concentration of 1 mg/mL in PBS (Gibco), were scanned (25-100° C.) at 1° C./min using a capillary nanoDSC instrument (CSC 6300, TA Instruments). […] Several unfolding events can contribute to the observed thermogram. In cases with multiple transitions, the one with the major unfolding energy best represents the overall protein fold and is reported. Muteins were produced as described in Example 3. SEQ ID NOs: 3, 7, 9, 25, and 29 were expressed using E. coli, the other muteins were expressed using CHO cells.
# The resulting maximum melting temperatures as well as the onset temperature of melting for exemplary lipocalin muteins and fusion proteins are listed in Table 3 below.
# [4] = target: T3, human CTGF (Homo sapiens, UniProt P29279); test: SPR binding kinetics and affinity, human CTGF; design: key to human CTGF kon / human CTGF koff / human CTGF KD: B binding without determination of kinetics constants; conditions: 25° C., 1:1 binding model
# T3 construct: purchased Creative Biomart
# Procedure: as §1, §2, §3, §4
# T2 sequence (P29279 with tags, fused parts or gaps H83D): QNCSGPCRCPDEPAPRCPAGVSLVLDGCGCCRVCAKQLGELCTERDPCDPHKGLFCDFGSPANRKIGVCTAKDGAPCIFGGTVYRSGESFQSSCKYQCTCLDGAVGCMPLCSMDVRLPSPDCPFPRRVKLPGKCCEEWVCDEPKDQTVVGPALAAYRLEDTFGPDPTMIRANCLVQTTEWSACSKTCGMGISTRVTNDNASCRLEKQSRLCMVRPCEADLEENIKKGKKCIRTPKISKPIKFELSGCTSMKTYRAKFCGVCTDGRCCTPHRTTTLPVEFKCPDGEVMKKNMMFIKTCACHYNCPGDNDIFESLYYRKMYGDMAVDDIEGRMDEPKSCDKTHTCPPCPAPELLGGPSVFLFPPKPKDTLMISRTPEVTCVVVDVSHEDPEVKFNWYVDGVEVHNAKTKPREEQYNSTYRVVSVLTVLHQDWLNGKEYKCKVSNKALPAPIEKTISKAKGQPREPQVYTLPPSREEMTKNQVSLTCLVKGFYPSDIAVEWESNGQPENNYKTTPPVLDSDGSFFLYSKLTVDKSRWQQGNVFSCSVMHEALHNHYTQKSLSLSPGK
# T3 sequence (P29279 with tags, fused parts or gaps H83D): as above
Molecule,human CTGF KD [1],human CTGF koff [1],human CTGF kon [1],Murine CTGF KD [2],Murine CTGF koff [2],Murine CTGF kon [2],ONSET MELTING [3] [°C],TM [3] [°C],human CTGF koff [4] [s⁻¹]
"SEQ ID NO: 17: optimized CTGF-binding hNGAL lipocalin mutein (protein, lipocalin mutein) QDSTSDLIPAPPLSKVPLQQNFQDNQFQGKWYVVGLAGNAILRTDKQPAKMFATIYELKEDKSYDVTSVRFEAKSCVYTSKTFVPGSQPGEFTAGNIKSAPGQTSTLVRVVSTNYNQHAMVFFKHVSQNREFFVITLYGRTKELTSELKENFIRFSKSLGLPENHIVFPVPIDQCIDG",B,B,B,B,B,B,59,74,–
"SEQ ID NO: 18: optimized CTGF-binding hNGAL lipocalin mutein (protein, lipocalin mutein) QDSTSDLIPAPPLSKVPLQQNFQDNQFQGKWYVVGIAGNAILRDDKYPAKMFATIYELKEDKSYDVTSVRFENKSCIYTIKTFVPGSQPGEFTHGNIKSHPGQTSTLVRVVSTNYNQHAMVFFKHVSQNREIFVITLYGRTKELTSELKENFIRFSKSLGLPENHIVFPVPIDQCIDG",–,–,40900 M⁻¹ s⁻¹,B,B,B,–,–,3.05e-06
"SEQ ID NO: 12: optimized CTGF-binding hNGAL lipocalin mutein (protein, lipocalin mutein) QDSTSDLIPAPPLSKVPLQQNFQDNQFQGKWYVVGLAGNAILREDKYPAKMFATIYELKEDKSYDVTSVRFENKSCVYTIKTFVPGSQPGEFTTGNIKSAPGQTSTLVRVVSTNYNQHAMVFFKHVSQNREFFVITLYGRTKELTSELKENFIRFSKSLGLPENHIVFPVPIDQCIDG",–,–,55600 M⁻¹ s⁻¹,–,0.000128 s⁻¹,91400 M⁻¹ s⁻¹,–,–,0.000133
"SEQ ID NO: 20: optimized CTGF-binding hNGAL lipocalin mutein (protein, lipocalin mutein) QDSTSDLIPAPPLSKVPLQQNFQDNQFQGKWYVVGLAGNAILREDKQPAKMFATIYELKEDKSYDVTSVRFEAKSCSYTIKTFVPGSQPGEFTAGNIKSAPGQTSTLVRVVSTNYNQHAMVFAKAVQLNREHFFITLYGRTKELTSELKENFIRFSKSLGLPENHIVFPVPIDQCIDG",B,B,B,B,B,B,46,61,–
"SEQ ID NO: 13: optimized CTGF-binding hNGAL lipocalin mutein (protein, lipocalin mutein) QDSTSDLIPAPPLSKVPLQQNFQDNQFQGKWYVVGLAGNAILREDKYPAKMFATIYELKEDKSYDVTSVRFENKSCVYTSKTFVPGSQPGEFTTGNIKSAPGQTSTLVRVVSTNYNQHAMVFFKHVSQNREFFVITLYGRTKELTSELKENFIRFSKSLGLPENHIVFPVPIDQCIDG",–,–,51000 M⁻¹ s⁻¹,B,B,B,–,–,2.51e-06
"SEQ ID NO: 11: optimized CTGF-binding hNGAL lipocalin mutein (protein, lipocalin mutein) QDSTSDLIPAPPLSKVPLQQNFQDNQFQGKWYVVGLAGNAILREDKQPAKMFATIYELKEDKSYDVTSVRFEAKSCSYTSKTFVPGSQPGEFTAGNIKSAPGQTSTLVRVVSTNYNQHAMVFFKHVSQNRETFVITLYGRTKELTSELKENFIRFSKSLGLPENHIVFPVPIDQCIDG",–,–,44400 M⁻¹ s⁻¹,–,8.19e-05 s⁻¹,80100 M⁻¹ s⁻¹,–,–,0.000108
